Experimental findings from article PMC10733476, “OsDWARF10, transcriptionally repressed by OsSPL3, regulates the nutritional metabolism of polished rice” are described below.

The target in the series is T1, OsSPL3 (Oryza sativa (indica, Minghui63; stated …, UniProt A2X0Q6 1-469).
T1 sequence: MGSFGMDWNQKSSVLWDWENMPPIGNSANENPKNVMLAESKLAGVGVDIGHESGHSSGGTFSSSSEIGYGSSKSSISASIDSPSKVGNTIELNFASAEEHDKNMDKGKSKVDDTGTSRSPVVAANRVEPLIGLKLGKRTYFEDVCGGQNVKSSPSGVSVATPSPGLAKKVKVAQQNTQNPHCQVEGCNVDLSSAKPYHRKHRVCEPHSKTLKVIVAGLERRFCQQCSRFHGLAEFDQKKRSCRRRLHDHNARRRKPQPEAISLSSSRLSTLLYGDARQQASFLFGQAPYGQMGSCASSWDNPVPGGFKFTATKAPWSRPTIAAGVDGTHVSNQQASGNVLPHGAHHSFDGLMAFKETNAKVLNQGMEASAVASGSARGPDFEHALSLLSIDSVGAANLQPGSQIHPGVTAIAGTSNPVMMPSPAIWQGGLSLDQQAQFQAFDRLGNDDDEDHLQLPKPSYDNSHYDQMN
As to the kind of experiment: EMSA; EMSA binding buffer (as printed, probably a concentrated stock): 125 mM Tris-HCl pH 8.0, 750 mM NaCl, 25 mM MgCl2, 100 mg/mL BSA, 50% glycerol, 5 mM DTT, 125 ng/uL salmon sperm DNA; 25 C, 20 min; 6% PAGE in 0.5x TG. Conditions: protein: recombinant; tags: N-terminal 6xHis (pET28A); label: 5' FAM on F strand; blunt. A general note: Mobility shift assays separate free from complexed probe on a gel.

B1: D10 S1 (dsDNA)
DNA 1: CTCACACATGCTACTGATGATGTACGTACGGACGTTACGTAGCGCGCGGG
DNA 2: CCCGCGCGCTACGTAACGTCCGTACGTACATCATCAGTAGCATGTGTGAG
As to B1, the binding result is reported as “binds”.

B2: D10 S2 (dsDNA)
DNA 1: CCACGCCCCACGTAACGTAGCGTACAGTGTACACCTGATTTCGCTCGGTC
DNA 2: GACCGAGCGAAATCAGGTGTACACTGTACGCTACGTTACGTGGGGCGTGG
For the molecule B2, the binding result is recorded as “binds”.
